Sequences and labels used below:
B1: peptide 69 (peptide)
peptide: Ac-ANYLALIEALIRAAQEQQEKNEAALRGSGK(cholesteryl‑succinyl)-NH2
SMILES: CC[C@H](C)[C@H](NC(=O)[C@H](CC(C)C)NC(=O)[C@H](C)NC(=O)[C@H](CCC(=O)O)NC(=O)[C@@H](NC(=O)[C@H](CC(C)C)NC(=O)[C@H](C)NC(=O)[C@H](CC(C)C)NC(=O)[C@H](Cc1ccc(O)cc1)NC(=O)[C@H](CC(N)=O)NC(=O)[C@H](C)NC(C)=O)[C@@H](C)CC)C(=O)N[C@@H](CCCNC(=N)N)C(=O)N[C@@H](C)C(=O)N[C@@H](C)C(=O)N[C@@H](CCC(N)=O)C(=O)N[C@@H](CCC(=O)O)C(=O)N[C@@H](CCC(N)=O)C(=O)N[C@@H](CCC(N)=O)C(=O)N[C@@H](CCC(=O)O)C(=O)N[C@@H](CCCCN)C(=O)N[C@@H](CC(N)=O)C(=O)N[C@@H](CCC(=O)O)C(=O)N[C@@H](C)C(=O)N[C@@H](C)C(=O)N[C@@H](CC(C)C)C(=O)N[C@@H](CCCNC(=N)N)C(=O)NCC(=O)N[C@@H](CO)C(=O)NCC(=O)N[C@@H](CCCCNC(=O)CCC(=O)O[C@H]1CC[C@@]2(C)C(=CC[C@H]3[C@@H]4CC[C@H]([C@H](C)CCCC(C)C)[C@@]4(C)CC[C@@H]32)C1)C(N)=O
B2: peptide 73 (peptide)
peptide: Ac-ACYAACIEALIRAAQEQQEKNEALLR-NH2
modifications: linker 2-6 via pXylylene
SMILES: CC[C@H](C)[C@H](NC(=O)[C@H](CC(C)C)NC(=O)[C@H](C)NC(=O)[C@H](CCC(=O)O)NC(=O)[C@@H](NC(=O)[C@@H]1CSCc2ccc(cc2)CSC[C@H](NC(=O)[C@H](C)NC(C)=O)C(=O)N[C@@H](Cc2ccc(O)cc2)C(=O)N[C@@H](C)C(=O)N[C@@H](C)C(=O)N1)[C@@H](C)CC)C(=O)N[C@@H](CCCNC(=N)N)C(=O)N[C@@H](C)C(=O)N[C@@H](C)C(=O)N[C@@H](CCC(N)=O)C(=O)N[C@@H](CCC(=O)O)C(=O)N[C@@H](CCC(N)=O)C(=O)N[C@@H](CCC(N)=O)C(=O)N[C@@H](CCC(=O)O)C(=O)N[C@@H](CCCCN)C(=O)N[C@@H](CC(N)=O)C(=O)N[C@@H](CCC(=O)O)C(=O)N[C@@H](C)C(=O)N[C@@H](CC(C)C)C(=O)N[C@@H](CC(C)C)C(=O)N[C@@H](CCCNC(=N)N)C(N)=O
B3: peptide 79 (peptide)
peptide: Ac-A[hCys]YAA[hCys]IEALIRKAQEQQEKNEAALR-NH2
modifications: linker 2-6 via B21
SMILES: CC[C@H](C)[C@H](NC(=O)[C@@H]1CCSCc2ccc3ccc(cc3c2)CSCC[C@H](NC(=O)[C@H](C)NC(C)=O)C(=O)N[C@@H](Cc2ccc(O)cc2)C(=O)N[C@@H](C)C(=O)N[C@@H](C)C(=O)N1)C(=O)N[C@@H](CCC(=O)O)C(=O)N[C@@H](C)C(=O)N[C@@H](CC(C)C)C(=O)N[C@H](C(=O)N[C@@H](CCCNC(=N)N)C(=O)N[C@@H](CCCCN)C(=O)N[C@@H](C)C(=O)N[C@@H](CCC(N)=O)C(=O)N[C@@H](CCC(=O)O)C(=O)N[C@@H](CCC(N)=O)C(=O)N[C@@H](CCC(N)=O)C(=O)N[C@@H](CCC(=O)O)C(=O)N[C@@H](CCCCN)C(=O)N[C@@H](CC(N)=O)C(=O)N[C@@H](CCC(=O)O)C(=O)N[C@@H](C)C(=O)N[C@@H](C)C(=O)N[C@@H](CC(C)C)C(=O)N[C@@H](CCCNC(=N)N)C(N)=O)[C@@H](C)CC
B4: peptide 78 (peptide)
peptide: Ac-A[hCys]YAA[hCys]IEALIRAAQEQQEKNEAALR-NH2
modifications: linker 2-6 via B21
SMILES: CC[C@H](C)[C@H](NC(=O)[C@H](CC(C)C)NC(=O)[C@H](C)NC(=O)[C@H](CCC(=O)O)NC(=O)[C@@H](NC(=O)[C@@H]1CCSCc2ccc3ccc(cc3c2)CSCC[C@H](NC(=O)[C@H](C)NC(C)=O)C(=O)N[C@@H](Cc2ccc(O)cc2)C(=O)N[C@@H](C)C(=O)N[C@@H](C)C(=O)N1)[C@@H](C)CC)C(=O)N[C@@H](CCCNC(=N)N)C(=O)N[C@@H](C)C(=O)N[C@@H](C)C(=O)N[C@@H](CCC(N)=O)C(=O)N[C@@H](CCC(=O)O)C(=O)N[C@@H](CCC(N)=O)C(=O)N[C@@H](CCC(N)=O)C(=O)N[C@@H](CCC(=O)O)C(=O)N[C@@H](CCCCN)C(=O)N[C@@H](CC(N)=O)C(=O)N[C@@H](CCC(=O)O)C(=O)N[C@@H](C)C(=O)N[C@@H](C)C(=O)N[C@@H](CC(C)C)C(=O)N[C@@H](CCCNC(=N)N)C(N)=O
B5: peptide 70 (peptide)
peptide: Ac-ACYAACIDALIRAAQEQQEKNEAALR-NH2
modifications: linker 2-6 via pXylylene
SMILES: CC[C@H](C)[C@H](NC(=O)[C@H](CC(C)C)NC(=O)[C@H](C)NC(=O)[C@H](CC(=O)O)NC(=O)[C@@H](NC(=O)[C@@H]1CSCc2ccc(cc2)CSC[C@H](NC(=O)[C@H](C)NC(C)=O)C(=O)N[C@@H](Cc2ccc(O)cc2)C(=O)N[C@@H](C)C(=O)N[C@@H](C)C(=O)N1)[C@@H](C)CC)C(=O)N[C@@H](CCCNC(=N)N)C(=O)N[C@@H](C)C(=O)N[C@@H](C)C(=O)N[C@@H](CCC(N)=O)C(=O)N[C@@H](CCC(=O)O)C(=O)N[C@@H](CCC(N)=O)C(=O)N[C@@H](CCC(N)=O)C(=O)N[C@@H](CCC(=O)O)C(=O)N[C@@H](CCCCN)C(=O)N[C@@H](CC(N)=O)C(=O)N[C@@H](CCC(=O)O)C(=O)N[C@@H](C)C(=O)N[C@@H](C)C(=O)N[C@@H](CC(C)C)C(=O)N[C@@H](CCCNC(=N)N)C(N)=O
B6: peptide 71 (peptide)
peptide: Ac-ACYAACIEALIRKAQEQQEKNEAALR-NH2
modifications: linker 2-6 via pXylylene
SMILES: CC[C@H](C)[C@H](NC(=O)[C@@H]1CSCc2ccc(cc2)CSC[C@H](NC(=O)[C@H](C)NC(C)=O)C(=O)N[C@@H](Cc2ccc(O)cc2)C(=O)N[C@@H](C)C(=O)N[C@@H](C)C(=O)N1)C(=O)N[C@@H](CCC(=O)O)C(=O)N[C@@H](C)C(=O)N[C@@H](CC(C)C)C(=O)N[C@H](C(=O)N[C@@H](CCCNC(=N)N)C(=O)N[C@@H](CCCCN)C(=O)N[C@@H](C)C(=O)N[C@@H](CCC(N)=O)C(=O)N[C@@H](CCC(=O)O)C(=O)N[C@@H](CCC(N)=O)C(=O)N[C@@H](CCC(N)=O)C(=O)N[C@@H](CCC(=O)O)C(=O)N[C@@H](CCCCN)C(=O)N[C@@H](CC(N)=O)C(=O)N[C@@H](CCC(=O)O)C(=O)N[C@@H](C)C(=O)N[C@@H](C)C(=O)N[C@@H](CC(C)C)C(=O)N[C@@H](CCCNC(=N)N)C(N)=O)[C@@H](C)CC
B7: peptide 72 (peptide)
peptide: Ac-ACYAACIEELIRKAQEQQEKNEAALR-NH2
modifications: linker 2-6 via pXylylene
SMILES: CC[C@H](C)[C@H](NC(=O)[C@@H]1CSCc2ccc(cc2)CSC[C@H](NC(=O)[C@H](C)NC(C)=O)C(=O)N[C@@H](Cc2ccc(O)cc2)C(=O)N[C@@H](C)C(=O)N[C@@H](C)C(=O)N1)C(=O)N[C@@H](CCC(=O)O)C(=O)N[C@@H](CCC(=O)O)C(=O)N[C@@H](CC(C)C)C(=O)N[C@H](C(=O)N[C@@H](CCCNC(=N)N)C(=O)N[C@@H](CCCCN)C(=O)N[C@@H](C)C(=O)N[C@@H](CCC(N)=O)C(=O)N[C@@H](CCC(=O)O)C(=O)N[C@@H](CCC(N)=O)C(=O)N[C@@H](CCC(N)=O)C(=O)N[C@@H](CCC(=O)O)C(=O)N[C@@H](CCCCN)C(=O)N[C@@H](CC(N)=O)C(=O)N[C@@H](CCC(=O)O)C(=O)N[C@@H](C)C(=O)N[C@@H](C)C(=O)N[C@@H](CC(C)C)C(=O)N[C@@H](CCCNC(=N)N)C(N)=O)[C@@H](C)CC
B8: peptide 74 (peptide)
peptide: Ac-ECYAACIEALIRAAQEQQEKNEAALR-NH2
modifications: linker 2-6 via pXylylene
SMILES: CC[C@H](C)[C@H](NC(=O)[C@H](CC(C)C)NC(=O)[C@H](C)NC(=O)[C@H](CCC(=O)O)NC(=O)[C@@H](NC(=O)[C@@H]1CSCc2ccc(cc2)CSC[C@H](NC(=O)[C@H](CCC(=O)O)NC(C)=O)C(=O)N[C@@H](Cc2ccc(O)cc2)C(=O)N[C@@H](C)C(=O)N[C@@H](C)C(=O)N1)[C@@H](C)CC)C(=O)N[C@@H](CCCNC(=N)N)C(=O)N[C@@H](C)C(=O)N[C@@H](C)C(=O)N[C@@H](CCC(N)=O)C(=O)N[C@@H](CCC(=O)O)C(=O)N[C@@H](CCC(N)=O)C(=O)N[C@@H](CCC(N)=O)C(=O)N[C@@H](CCC(=O)O)C(=O)N[C@@H](CCCCN)C(=O)N[C@@H](CC(N)=O)C(=O)N[C@@H](CCC(=O)O)C(=O)N[C@@H](C)C(=O)N[C@@H](C)C(=O)N[C@@H](CC(C)C)C(=O)N[C@@H](CCCNC(=N)N)C(N)=O

From US20140357577A1, “HIV Membrane Fusion Inhibitors” (priority 2011, published 2014) come the findings set out here.

Starred links: 1 amine or outer side, 2 acyl side, 3 side chain; linkers in the order of their positions; H or OH if unused. Positions of bridges follow the written chain, without caps; N, C: chain ends. Non-standard residues stand in square brackets, D forms with d. *: point of attachment. cholesteryl‑succinyl = CC(C)CCC[C@@H](C)[C@H]1CC[C@H]2[C@@H]3CC=C4C[C@@H](OC(=O)CCC(=O)*)CC[C@]4(C)[C@H]3CC[C@]12C; B21 = 2,7-dimethylnaphtyl, c1cc2ccc(C[*:2])cc2cc1C[*:1]; pXylylene = c1cc(C[*:2])ccc1C[*:1]; hCys = N[C@@H](CCS)C(=O)O; B1 = not defined here

The experiment concerns the target gp41 of HIV-1 strain HXB2D with mutation V38A (HIV-1 strain HXB2D, UniProt P04578). As to the kind of experiment: cell-based or functional assay.
B1: the “fold change in EC50, HIV-HXB2D V38A mutant” value (“fold change in EC50” for short) was 1 fold.

With Ac-[dA]CYAACIEALIRAAQEQQEKNEAAL[dR]-NH2 (linker 2-6 via 2,7‑dimethylnaphthyl) [peptide 76], the “fold change in EC50” value stood at 48 fold.

As for B2, the “fold change in EC50” value is 60 fold.

B3: the “fold change in EC50” value was determined as 27 fold.

For the molecule B4, the “fold change in EC50” value was 61 fold.

With Ac-A[hCys]YAA[hCys]IEALIRAAQEQQEKNEAALR-NH2 (linker 2-6 via B1; reading uncertain) [peptide 77], the “fold change in EC50” value turned out to be 39 fold.

B5: the “fold change in EC50” value came out at 11 fold.

In the case of B6, the “fold change in EC50” value was 11 fold.

For the molecule Ac-[dA]CYAACIEALIRAAQEQQEKNEAAL[dR]-NH2 (linker 2-6 via 2,7‑dimethylnaphthyl) [peptide 75], the “fold change in EC50” value amounted to 21 fold.

On to B7, for which the “fold change in EC50” value came to 10 fold.

In the case of B8, the “fold change in EC50” value came out at 33 fold.
